According to PMC12699829, “Development of a glutamine-responsive MRI contrast agent” (Chemical Science, 2025):
Where a chain is given by its changes, count along the chain named. Names may count otherwise.

Key:
[1] = T1 and T2 relaxivity measurements at 9.4 T (400 MHz NMR); type: physicochemical; conditions: for r2 (Holo) / r2 (Apo): PBS buffer pH 7.4, 37 °C; for r2 (Holo): with Gln; for r2 (Apo): without Gln; for Holo/Apo % r2 Change: 37 °C
Experimental: The effectiveness of a contrast agent depends on its “relaxivity”, which is measured in units of mM^−1 s^−1, and quantifies how much a given concentration of the contrast agent improves water relaxation rates. T1 and T2 relaxivities are denoted r1 and r2, respectively, and are calculated according to eqn (1):1 [drawing 1] Here, Ti and Ti^0 are the relaxation times in the presence and absence of the contrast agent, respectively, and [C] is the concentration of the contrast agent. […] The relaxivity of a contrast agent depends not only on the properties of the molecule but also on the strength of the magnetic field used for the measurement. Whereas early MRI instruments were relatively weak (<1 T), the modern clinical standard has risen to 1–3 T, wth an increasing number of even more powerful instruments (>3 T) in recent years. Thus, we performed relaxivity experiments at both the most clinically relevant field strengths 1.4 T and at the more cutting-edge field strength of 9.4 T.
10% D 2O (assay buffer). S tock solutions of swArM in assay buffer was prepared at1.11, 0.83, 0.56, and 0.28 mM. Apo- and holo-swArM samples were prepared from the same stock by adding either 20 μL assay buffer or 20 μL 0. 1 M Gln in assay buffer, to 180 μL of protein solution, respectively. Final protein concentrations were verified using the molar extinction coefficient ε28 0 = 25.9 mM -1 cm -1.
B. NM R M easu r ements . Relaxivities of all variants were determined at 37 °C from spectra taken at 9.4 T (400 mHz) using a Varian Inova 400 -MHz NMR spectrometer equipped with a Nalorac, 5 mm, DR probe. Select variants were also investigated at 32°C at 1.4 T (60 mHz) using a Nanalysis NMReady60 Pro instrument. Measurements were typically performed on 4 diffe rent concentrations of contrast agent and on the same buffer with no contrast agent. Temperature- dependent relaxivity measurements were performed using a Varian Inova 500-MHz NMR spectrometer, equipped with a Vari an, 5-mm, TR PFG probe with inverse proton detection. Temperature- dependent relaxivity was determined using either two concen trations of contrast agent ( 0. 5 and 1. 0 mM ) or t hree (0. 3, 0. 6, and 0.9 mM) . The temperature was calibrated using the 1H NMR signal of ethylene glycol.20 T1 measurements were performed using the inversion recovery method21 and T2 measurements were performed using the Carr–Purcell–Meiboom –G ill (CPMG) p ulse […]
Six or more pulse delay times (τ) were chosen to ensure coverage of the Ti under observation, and the delay between pulse sequences was set to at least 5-times T1.
Optimized 90° and 180° pulse widths were determined on the day of the experiment, and typically spanned 16‒2 0 μs (90° pulse width) and 32‒4 0 μs (180° pulse width). The delay in the CPMG pulse sequence was set to at least 50 times the 180° pulse width to allow at least four echo loops .
C. A n al ysi s . To determine Ti, data were analyzed via MestReNova software. For each spectrum, an integration was performed over the water peak, and the values obtained (dependent variable) were plotted against τ (independent variable). […]
then fit to a monoexponential decay according to Eq. 1. From these analyses, we obtain Ti for each sample concentration and type.
The quantity described by Eq. 2, where Ti at zero added sample is T0, was then plotted against the swArM concentration and a linear regression model was applied. The slope of this line gives the contrast agent relaxivity ri.

[2] = Stability of swArM samples prepared in PBS buffer for relaxivity studies; type: physicochemical; conditions: PBS buffer
Excerpt: Next, we set out to investigate alternative ligands to coordinate Ln^3+ ions. As shown in Chart 1, we investigated two DOTA derivatives (DOTA-mal^N and DOTA-mal^C) as well as an acyclic version of DOTA, diethylene triamine pentaacetic acid (DTPA), and a six-coordinate version of the eight-coordinate DOTA ligand, nonane triacetic acid (NOTA). […] This ligand has previously been tested with Gd^3+ as an MRI contrast agent in PBS buffer, with no reported stability issues.[40] The fact that conjugation to our protein decreased the kinetic stability of Gd(NOTA) exemplifies the impact of the specific protein environment.

B1: [Gd(DOTA-malN)]72-Q183K: swArM: Gd(DOTA-mal^N) on T72C/Q183K double variant of GlnBP (conjugate, UniProt P0AEQ3 23-248, looked up, variant T72C Q183K)
Glutamine-binding periplasmic …: ADKKLVVATDTAFVPFEFKQGDKYVGFDVDLWAAIAKELKLDYELKPMDFSGIIPALQTKNVDLALAGITICDERKKAIDFSDGYYKSGLLVMVKANNNDVKSVKDLDGKVVAVKSGTGSVDYAKANIKTKDLRQFPNIDNAYMELGTNRADAVLHDTPNILYFIKTAGNGQFKAVGDSLEAKQYGIAFPKGSDELRDKVNGALKTLRENGTYNEIYKKWFGTEPK
modifications: Gd(DOTA-malN) at Cys72
notes: swArM: Gd(DOTA-mal^N) on T72C/Q183K double variant of GlnBP
r2 (Holo) [1]: 28.2 ± 0.8 mM⁻¹ s⁻¹
r2 (Apo) [1]: 30.9 ± 0.2 mM⁻¹ s⁻¹

B2: [Gd(NOTA)mal^N)]72-GlnBP: swArM: Gd complex of maleimide-functionalized NOTA attached at Cys72 of T72C-GlnBP (conjugate, UniProt P0AEQ3 23-248, looked up, variant T72C)
Glutamine-binding periplasmic …: B1 Glutamine-binding periplasmic … with K183Q
modifications: Gd(NOTA-mal) at Cys72
stability of the swArM in PBS buffer (metal loss, precipitate) [2]: precipitate formation

B3: [Dy(DOTA-malN)]72-Q183Y: swArM: Dy(DOTA-mal^N) on T72C/Q183Y double variant of GlnBP (conjugate, UniProt P0AEQ3 23-248, looked up, variant T72C Q183Y)
Glutamine-binding periplasmic …: B1 Glutamine-binding periplasmic … with K183Y
modifications: Dy(DOTA-malN) at Cys72
notes: swArM: Dy(DOTA-mal^N) on T72C/Q183Y double variant of GlnBP
Holo/Apo % r2 Change [1]: 29 ± 4%
r2 (Holo) [1]: 18.0 ± 0.4 mM⁻¹ s⁻¹
r2 (Apo) [1]: 14.0 ± 0.1 mM⁻¹ s⁻¹

B4: [Dy(DOTA-malC)]72-A126Y: swArM: Dy(DOTA-mal^C), linker on carbon of carboxylate arm, on T72C/A126Y GlnBP (conjugate, UniProt P0AEQ3 23-248, looked up, variant T72C A126Y)
Glutamine-binding periplasmic …: B1 Glutamine-binding periplasmic … with A126Y, K183Q
modifications: Dy(DOTA-malC) at Cys72
notes: swArM: Dy(DOTA-mal^C), linker on carbon of carboxylate arm, on T72C/A126Y GlnBP
r2 (Holo) [1]: 9.6 ± 0.2 mM⁻¹ s⁻¹
r2 (Apo) [1]: 9.7 ± 0.1 mM⁻¹ s⁻¹

B5: [Dy(DOTA-malN)]72-G119K: swArM: Dy(DOTA-mal^N) on T72C/G119K double variant of GlnBP (conjugate, UniProt P0AEQ3 23-248, looked up, variant T72C G119K)
Glutamine-binding periplasmic …: B1 Glutamine-binding periplasmic … with G119K, K183Q
modifications: Dy(DOTA-malN) at Cys72
notes: swArM: Dy(DOTA-mal^N) on T72C/G119K double variant of GlnBP
Holo/Apo % r2 Change [1]: 15 ± 4%
r2 (Holo) [1]: 8.5 ± 0.2 mM⁻¹ s⁻¹
r2 (Apo) [1]: 7.39 ± 0.07 mM⁻¹ s⁻¹

B6: [Dy(DOTA-mal^N)]72-N127Y: swArM: Dy(DOTA-mal^N) on T72C/N127Y double variant of GlnBP (conjugate, UniProt P0AEQ3 23-248, looked up, variant T72C N127Y)
Glutamine-binding periplasmic …: B1 Glutamine-binding periplasmic … with N127Y, K183Q
modifications: Dy(DOTA-malN) at Cys72
notes: swArM: Dy(DOTA-mal^N) on T72C/N127Y double variant of GlnBP
Holo/Apo % r2 Change [1]: 40 ± 7%
r2 (Holo) [1]: 9.1 ± 0.2 mM⁻¹ s⁻¹
r2 (Apo) [1]: 6.5 ± 0.3 mM⁻¹ s⁻¹
